Laboratory results published in the supplement of paper PMC10567573.

B1: TRIM43 (parent)
chain: FCDMDKSLLCLLCSNSQEHGAHKH
B2: KLHL20 (parent)
chain: YQDMIYAVGGRDDTTELSSAERYN

Variants of: B1
Assay: protein stability index of a GFP-peptide fusion (GPS, HEK-293T) (PSI 1-6); higher = more stable
Conditions: c terminus: a fixed tail appended
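Note: lentivirally expressed fusions sorted by FACS into six bins by GFP to DsRed ratio, PSI derived from sequencing read proportions per bin multiplied by bin number.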

Protein stability index: each site, then its substitutions
C2: P 2.76; K 3.4; Y 2.9; G 1.77; M 2.31
H24: D 2.18; F 1.43; G 1.77; C 2.4; T 1.66; R 1.86; A 1.72; V 2.04
S7: K 1.92; Y 2.1; V 1.79; N 2.22
L9: K 2.61; S 1.88
L12: T 1.95; W 3.13; N 2.14
M4: V 2.11
A21: V 1.85; S 2.02; L 1.97
H22: M 1.48; P 1.69; A 1.77; C 2.59
C10: A 2.23; N 1.83
K6: V 1.74; L 1.97; M 2.21; I 2.04
N15: W 1.89; F 2.01
C13: Y 1.68; F 1.89
H19: Q 1.41; V 1.59; A 1.91
L8: R 2.71; T 2.32; A 2.43
Q17: W 1.74; T 1.61; N 1.51
G20: N 2.03
E18: L 1.7; N 1.87
S14: G 2.26; I 1.52
F1: K 3.56; E 4.17
D5: T 2.34; V 2.74; E 1.92; F 3.03
S16: K 2.04; V 2.23; Y 1.79
D3: V 2.76; Q 2.07; T 1.82; F 2
L11: R 2.19; T 2.51; Q 2.36; P 1.83

Variants of: B2
Assay: as above
Conditions: c terminus: a fixed tail appended

Protein stability index: each site, then its substitutions
Y1: G 4.66; K 4.39; Q 4.75; T 4.58; I 4.05; F 1.89; W 2.85; P 4.57; C 4.21; D 5.33; R 4.89; H 4.5; A 4.78; S 4.89; V 4.5; N 4.96; L 4.26; M 4.1; E 5.08
G10: W 1.91; S 2.09; A 1.83; P 2.44; N 2.45; T 1.82; L 1.78; D 2.81; M 1.87; C 2.23; E 2.92; Q 2.61; K 1.83; F 2.27; V 2.05; Y 1.8; R 1.86; I 1.62; H 2.12
M4: C 2.68; V 3.02; Q 2.66; A 2.51; G 2.48; D 3.48; R 2.75; W 2.85; P 2.6; K 2.65; H 2.55; L 2.31; I 2.4; T 3.15; N 3.12; S 3.27; F 1.84; Y 2.77; E 3.68
G9: V 2.02; S 1.85; H 1.94; I 1.51; Q 2.27; R 2.36; P 2.32; T 2.4; A 1.94; M 2.17; D 2.88; C 2.23; Y 1.32; F 2.15; E 2.53; N 1.95; K 2.07; W 1.92; L 2.01
A7: K 2.12; V 2.16; D 3.34; T 2.27; W 2.92; C 2.17; N 2.92; Y 2.27; Q 2.29; E 3.56; G 3.01; F 1.69; P 3.07; L 2.01; S 2.55; M 1.96; H 2.42; I 1.8; R 1.76
D3: E 2.48; I 2.26; N 2.63; S 1.99; K 2.79; V 1.86; W 2.03; F 1.88; T 1.56; G 1.47; A 1.7; M 1.81; Y 1.77; Q 3.08; H 2.15; P 3.4; L 1.81; C 2.15; R 2.83
D13: H 1.98; R 1.75; V 2.49; T 2.18; N 2.01; K 2.23; Y 1.97; I 2.26; S 2.18; E 2.36; M 1.34; W 1.77; L 2.06; P 2.03; A 1.66; Q 2.11; G 2; F 2.08; C 1.8
Y6: D 4.74; W 2.51; F 2.14; H 3.27; T 3.94; Q 3.87; S 3.88; I 3.08; L 2.88; P 3.41; G 3.77; V 3.01; R 3.37; A 3.85; E 4.55; C 2.71; N 3.98; K 3.43; M 2.98
V8: L 1.86; Q 2.6; H 2.84; F 1.87; C 2.37; E 3.38; S 2.65; N 2.81; G 2.81; A 2.77; P 2.79; D 3.45; R 2.52; T 2.41; I 1.97; K 2.44; W 1.94; M 1.75; Y 2.09
I5: D 3.99; K 3.39; G 3.14; F 1.79; R 2.71; A 2.28; Q 4.11; N 3.09; E 3.98; V 2.53; W 2.48; H 2.65; M 2.77; P 2.72; T 3.17; L 2.61; Y 2.21; C 2.52; S 3.53
Q2: Y 3.17; P 3.58; K 4.2; S 3.61; L 2.85; M 3.03; D 4.86; R 3.6; T 2.22; N 4.27; G 3.28; C 2.02; H 2.83; F 2.79; I 1.58; E 5.02; A 2.3; V 1.96; W 2.87
R11: C 2.69; M 2.32; W 2.08; P 2.57; V 2.16; F 2.08; K 2.55; A 2.54; D 3.01; G 2.33; L 1.99; E 3; I 2.44; Q 2.75; T 2.23; H 2.1; Y 1.91; N 2.49; S 2.9
D12: H 2.17; V 1.53; I 1.6; S 2.32; N 2.43; A 2.33; G 2.47; L 2.21; F 1.45; R 1.78; C 2.01; E 2.74; W 1.8; M 1.76; P 2.34; Q 2.09; T 1.58; Y 1.9; K 2.1
T14: M 2.01; R 2.13; S 2.48; C 2.47; P 2.89; G 2.47; D 2.79; Q 2.35; I 2.09; E 2.78; A 1.82; H 1.98; L 2.48; N 2.36; K 2.17; F 2.18
